The target in experiment [1] is T1, PSIIm-S/27 (monomeric photosystem II-PsbS/Psb27 complex) (Nicotiana tabacum, UniProt P69556+P69686).
T1 construct: gene psbA; native PSII core monomer from stromal lamellae/grana margins; His6 tag at 5' end of psbE; beta-DDM; PsbS and Psb27 quasi-stoichiometric; with Photosystem II CP47 reaction center protein; Photosystem II CP43 reaction center protein; Cytochrome b559 subunit alpha; Cytochrome b559 subunit beta; Photosystem II 22 kDa protein, chloroplastic; Photosystem II repair protein PSB27, chloroplastic
The experiment can be described thus: flash-induced chlorophyll fluorescence decay. As to conditions: 10 µM DCMU, 15 °C (also 20 °C), pH 6.5; QB site, blocks electron transfer from QA. Format: biochemical.

Experiment [2] has as its target photosystem II monomer core complex (PSIIm), His6-tagged on PsbE (N. tabacum | N. tabacum (endogenous in tobacco thylakoids)) (UniProt P69384).

PsbS, sequence (Q9SMB4 67-274): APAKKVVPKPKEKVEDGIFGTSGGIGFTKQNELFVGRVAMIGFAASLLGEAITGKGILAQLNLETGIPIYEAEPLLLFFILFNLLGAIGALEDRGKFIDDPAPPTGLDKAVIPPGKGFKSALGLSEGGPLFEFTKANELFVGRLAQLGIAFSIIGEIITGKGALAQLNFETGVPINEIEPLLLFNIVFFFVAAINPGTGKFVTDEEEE

`CN(C)C(=O)Nc1ccc(Cl)c(Cl)c1` [DCMU]: in experiment [1], the “flash-induced chlorophyll fluorescence decay” value is “presence of PsbS and/or Psb27 does not interfere with the DCMU binding”.
Turning to Psb27 (natural protein), the decay of flash-induced chlorophyll fluorescence yield (QA^•− oxidation) at 15 °C, PSIIm-S/27 against PSIIm in experiment [2] came out at 10 fold.
The same measure, in the same setting: the result for “PsbS (from UniProt Q9SMB4 67-274) (natural protein)” reads 10 fold.

The record behind these values is article PMC10400029, “Bicarbonate activation of the monomeric photosystem II-PsbS/Psb27 complex” (Plant Physiology, 2023).
